Results as given in publication PMC4667285, “Octameric structure of Staphylococcus aureus enolase in complex with phosphoenolpyruvate” (Acta Crystallographica Section D: Biological Crystallography, 2015).

Assays:
Sa_enolase (octamer) = biological target: T1, Sa_enolase (octamer) (Staphylococcus aureus, UniProt O69174); assay: isothermal titration calorimetry; assay type: binding
T1 construct: gene eno; C-terminal hexahistidine tag, pET-24a, E. coli BL21(DE3); residues 1-434 described; octamer fraction separated from dimer by size-exclusion chromatography

[1] = system: O=C(O)[C@@H](CO)OP(=O)(O)O; assay: purified protein; settings: octamer, room temperature, 20 mM IMD–HCl, 400 mM KCl, 1 mM magnesium acetate pH 7.0
[2] = biological target: Sa_enolase D355A mutant (Staphylococcus aureus) (UniProt Q2G028); assay: SEC
[3] = biological target: Sa_enolase F139A mutant (Staphylococcus aureus) (UniProt Q2G028); assay: SEC
[4] = biological target: Sa_enolase G138A mutant (Staphylococcus aureus) (UniProt Q2G028); assay: SEC
[5] = biological target: Sa_enolase Y135A mutant (Staphylococcus aureus) (UniProt Q2G028); assay: SEC
[6] = biological target: Staphylococcus aureus enolase, wild type (Staphylococcus aureus) (UniProt Q2G028); assay: crystal structure; PEP-bound Sa_enolase, 1.6 Å, space group I4, co-crystallised with 2-PG (1:10); 0.2 M ammonium acetate, 0.1 M Tris-HCl pH 8.5, 25% PEG 3350, 16°C
[7] = biological target: Staphylococcus aureus enolase, wild type (Staphylococcus aureus) (UniProt Q2G028); assay: crystal structure; non-ligand-bound Sa_enolase, 2.45 Å, space group P42(1)2, a homodimer in the asymmetric unit, octamer by fourfold crystallographic symmetry; 0.01 M cobalt(II) chloride, 0.1 M MES pH 6.5, 1.8 M ammonium sulfate, 16°C

O=C(O)[C@@H](CO)OP(=O)(O)O [2-PG] was tested, and the Kd (Sa_enolase (octamer)) was 15 ± 2.6 µM.
In the case of “Sa_enolase (octamer) (Staphylococcus aureus)”, the Km [1] is reported as 0.365 ± 0.030 × 10^−3 M, the Vmax [1] is reported as 74.8 µM/min and the kcat [1] is reported as 83 s⁻¹. It also gave a kcat/Km [1] of 227000 M⁻¹ s⁻¹.
“Sa_enolase D355A mutant (from UniProt Q2G028) (enzyme)” gave a stoichiometry N [2] of 2.
In the case of “Sa_enolase F139A mutant (from UniProt Q2G028) (enzyme)”, the stoichiometry N [3] is reported as 2.
Work on “Sa_enolase G138A mutant (from UniProt Q2G028) (enzyme)” yielded a stoichiometry N [4] of 2.
For “Sa_enolase Y135A mutant (from UniProt Q2G028) (enzyme)”, the stoichiometry N [5] was 2.
For “Staphylococcus aureus enolase, wild type (from UniProt Q2G028) (enzyme)”, the stoichiometry N [6] was 8 and the stoichiometry N [7] was 8.
